From paper PMC5662737, “Structural and mechanistic insights into ATRX-dependent and -independent functions of the histone chaperone DAXX” (Nature Communications, 2017)

B1: human DAXX four-helix bundle domain (4HB, residues 50–144) [human] / human ATRX DAXX-binding motif (DBM) peptide, wild type [human] (parent complex)
chain 1: SSSSGGKKCYKLENEKLFEEFLELCKMQTADHPEVVPFLYNRQQRAHSLFLASAEFCNILSRVLSRARSRPAKLYVYINELCTVLKAHSAKKKLN
chain 2: NDPENRIAKKMLLEEIKANLSSDE
B2: human ATRX DAXX-binding motif (DBM) peptide, wild type [human] / human DAXX four-helix bundle domain (4HB, residues 50–144) [human] (parent complex)
chain 1: NDPENRIAKKMLLEEIKANLSSDE
chain 2: B1 chain 1

Variants of: B1
Experiment: ITC

**Q.** For chain 1 F38A, which Kd is on record?
**A.** 7.5 µM

Variants of: B2
Experiment: ITC

**Q.** For chain 1 I16A, which Kd is on record?
**A.** 12.9 µM
